Article doi:10.1101/2024.01.22.576510 (bioRxiv, 2024)

Molecular target: human Na+-taurocholate co-transporting polypeptide (NTCP), detergent-purified, tags cleaved (Homo sapiens, UniProt Q14973)
Assay: cryo-EM structure

human Na+-taurocholate co-transporting polypeptide (NTCP), detergent-purified, tags cleaved, sequence (Q14973 whole entry): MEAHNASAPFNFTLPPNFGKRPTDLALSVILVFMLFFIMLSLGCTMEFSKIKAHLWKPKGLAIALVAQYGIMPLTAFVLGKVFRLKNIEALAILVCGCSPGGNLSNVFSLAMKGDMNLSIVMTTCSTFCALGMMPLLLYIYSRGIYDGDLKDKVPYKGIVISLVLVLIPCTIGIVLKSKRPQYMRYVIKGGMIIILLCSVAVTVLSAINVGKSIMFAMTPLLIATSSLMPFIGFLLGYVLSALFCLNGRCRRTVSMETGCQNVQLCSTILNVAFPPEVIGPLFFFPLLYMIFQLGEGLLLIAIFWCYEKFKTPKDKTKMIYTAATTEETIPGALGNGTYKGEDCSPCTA

binding result: binds
B1: Fab3 (Fab, V domains shown)
VH: EVQLVESGGGLVQPGGSLRLSCAASGFNVSSSYIHWVRQAPGKGLEWVASISPYYSYTSYADSVKGRFTISADTSKNTAYLQMNSLRAEDTAVYYCARYQYDYYYSYYAGLDYWGQGTLVTVSS
VL: DIQMTQSPSSLSASVGDRVTITCRASQSVSSAVAWYQQKPGKAPKLLIYSASSLYSGVPSRFSGSRSGTDFTLTISSLQPEDFATYYCQQYRYSLITFGQGTKVEIK
